Biological target: HIV-1 integrase tagged at the C-terminus with the HA epitope (IN-HA) (HIV-1 (Lai molecular clone))
Assay: cross-linking; gel filtration fractions 30-32 (IN complex III) of extracts of infected LEDGF/p75 knock-down TL34 cells, 2 h p.i.; 0.25 to 2 mM EGS, 30 min at room temperature, 20 mM HEPES-KOH pH 7.2, 0.3 M KCl; SDS-PAGE and anti-HA-HRP blot

Substance: HIV-1 integrase tagged at the C-terminus with the HA epitope (IN-HA) (enzyme)
- stoichiometry N: 4

From article PMC3571920
